T1: cynomolgus monkey IL-17A (cynomolgus monkey (Macaca fascicularis))
T1 chain: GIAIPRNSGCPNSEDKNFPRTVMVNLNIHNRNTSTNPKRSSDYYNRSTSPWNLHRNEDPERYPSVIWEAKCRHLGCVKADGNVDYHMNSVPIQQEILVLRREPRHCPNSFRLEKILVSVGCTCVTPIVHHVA

T2: human IL-17E (human, UniProt Q9H293 33-177)
T2 construct: also called IL-25
T2 sequence: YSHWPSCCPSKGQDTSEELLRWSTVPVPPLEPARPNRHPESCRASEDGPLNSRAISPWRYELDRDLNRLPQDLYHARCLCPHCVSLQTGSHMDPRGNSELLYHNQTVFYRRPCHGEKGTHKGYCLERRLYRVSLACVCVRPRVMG

T3: human IL-17D (human, UniProt Q8TAD2 16-202, limits assumed)
T3 sequence: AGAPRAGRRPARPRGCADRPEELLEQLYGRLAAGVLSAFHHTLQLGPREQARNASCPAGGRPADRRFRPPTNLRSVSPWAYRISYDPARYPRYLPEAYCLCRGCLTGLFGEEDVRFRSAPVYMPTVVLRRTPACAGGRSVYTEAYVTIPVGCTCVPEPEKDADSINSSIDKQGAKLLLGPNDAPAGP

T4: human IL-17B (human, UniProt Q9UHF5 21-180)
T4 sequence: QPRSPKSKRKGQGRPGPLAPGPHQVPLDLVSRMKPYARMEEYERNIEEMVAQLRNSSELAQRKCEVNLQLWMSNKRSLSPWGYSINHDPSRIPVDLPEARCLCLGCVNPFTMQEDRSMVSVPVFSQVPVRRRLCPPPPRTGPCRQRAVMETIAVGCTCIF

T5: human IL-17F (human, UniProt Q96PD4 31-163)
T5 construct: Peprotech Cat. No. 200-25 in the direct ELISA
T5 sequence: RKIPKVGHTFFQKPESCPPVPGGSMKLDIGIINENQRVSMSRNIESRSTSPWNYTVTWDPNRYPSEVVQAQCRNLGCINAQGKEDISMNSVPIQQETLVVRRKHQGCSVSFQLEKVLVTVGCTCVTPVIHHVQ

T6: human IL-17C (human, UniProt Q9P0M4 19-197)
T6 sequence: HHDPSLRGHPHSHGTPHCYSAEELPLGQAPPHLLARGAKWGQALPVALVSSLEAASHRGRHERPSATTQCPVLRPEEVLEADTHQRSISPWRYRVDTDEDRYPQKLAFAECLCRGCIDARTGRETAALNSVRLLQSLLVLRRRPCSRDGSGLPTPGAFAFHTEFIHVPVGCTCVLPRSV


Experiments:
[1] = molecular target: T1, cynomolgus monkey IL-17A; test: SPR (Biacore T200), cynomolgus IL-17A (Trenzyme), scFv as analyte
[2] = molecular target: T2, human IL-17E; test: competition ELISA: coated scFv, biotinylated IL-17A, unlabeled cytokine as competitor
[3] = molecular target: T3, human IL-17D; test: as above
[4] = molecular target: T4, human IL-17B; test: as above
[5] = molecular target: T5, human IL-17F; test: as above
[6] = molecular target: T6, human IL-17C; test: as above

Kd [1] | koff [1] | kon [1] | binding result [2] | binding result [3] | binding result [4] | binding result [5] | binding result [6] | Binder
0.0331 nM | 3.88e-05 s⁻¹ | 1.17e+06 M⁻¹ s⁻¹ | no binding | no binding | no binding | no binding | no binding | PRO571 (scFv, also called 27-31-C04-sc01; 27_31_C04_sc01) scFv: DIQMTQSPSSLSASVGDRVTITCQASESIYRYLSWYQQKPGKAPKLLIYLASTLTSGVPSRFSGSGSGTDFTLTISSLQPEDFATYYCQSNFGTASTTYYNTFGGGTKLTVLGGGGGSGGGGSGGGGSGGGGSEVQLVESGGGLVQPGGSLRLSCAASGFSFSGFYYMCWVRQAPGKGLEWIGCIDTGDGTTYYASWAKGRFTISRDNSKNTVYLQMNSLRAEDTAVYYCARDAAYGGYAYPAHGMDLWGQGTLVTVSS
0.16 nM | 5.38e-05 s⁻¹ | 336000 M⁻¹ s⁻¹ | no binding | no binding | no binding | no binding | no binding | PRO592 (scFv, also called 27-31-C04-sc02; 27_31_C04_sc02) scFv: DIQMTQSPSSLSASVGDRVTITCQASESIYRYLSWYQQKPGKAPKLLIYLASTLTSGVPSRFSGSGSGTDFTLTISSLQPEDFATYYCQSNFGTASTTYYNTFGGGTKLTVLGGGGGSGGGGSGGGGSGGGGSEVQLVESGGGLVQPGGSLTLSCAASGFSFSGFYYMCWVRQAPGKGLEWIGCIDTGDGTTYYASWAKGRFTISRDNSKNTVYLQMNSLRAEDTAVYYCARDAAYGGYAYPAHGMDLWGPGTLVTVSS

From EP3689907A1 (Numab Therapeutics AG, dated 2020)
